# Like-named read-outs stand apart in the source and are kept apart here.
# Legend:
# Fas death domain [1] = biological target: Fas death domain (UniProt P25445)
# [2] = biological target: FADD death domain, His6-tagged (UniProt Q13158); test: pull-down
# Fas death domain [3] = biological target: Fas death domain (UniProt P25445); test: crystal structure
# Sequence of UniProt Q13158 (Q13158 93-191): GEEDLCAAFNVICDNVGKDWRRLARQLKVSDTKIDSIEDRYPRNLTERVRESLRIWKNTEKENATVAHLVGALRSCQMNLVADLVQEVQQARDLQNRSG
substance,measurement,setting,value
Fas death domain (from UniProt P25445 230-314) (domain or fragment),stoichiometry N,Fas death domain [1],4
same,concentration at which the complex dissociates,[2],50 µM
same,stoichiometry N,Fas death domain [3],4

# Source: publication PMC2661029
